We go through three substances from patent US7078511B1.

Experiment [1] addresses Drosophila melanogaster scavenger receptor type CI (Drosophila melanogaster).
The target of experiment [2] is hamster scavenger receptor type BI (hamster). Put plainly: ^125I-AcLDL (5 µg/ml) binding at 4° C. to ldlA[haSR-BI] cells, no competitor.

On to Poly D-glutamic acid (peptide), for which the ^125I-AcLDL Degradation (% No Competitor) (% No Competitor) in experiment [1] worked out at 34.

Turning to acetylated low density lipoprotein, the 125I-AcLDL binding (ng/mg cell protein) in experiment [2] amounted to 293. The ^125I-AcLDL Degradation (% No Competitor) (% No Competitor) in experiment [1] was determined as 4.8.

In the case of low density lipoprotein, in experiment [1], the ^125I-AcLDL Degradation (% No Competitor) (% No Competitor) came out at 97.6.
